In paper PMC7393355, “A FRET-based screening method to detect potential inhibitors of the binding of CNNM3 to PRL2” (Scientific Reports, 2020):
Positions count from the first letter of the chain named. Names and notes keep the numbering of the source.

System: binding of CNNM3-YPet and CyPet-PRL2 (CNNM3-PRL2 complex)
Assay: FRET-based inhibition test of the binding of CNNM3-YPet and CyPet-PRL2
Design: species or system human
Details: CNNM3-YPet 200 nM, CyPet-PRL2 200 nM, n = 6; for FRET intensity abolished / inhibition of complex formation: pre-incubated 20 min R.T. with binding partner, TBS pH 8.0, mean
Description: FRET measurements were conducted in TBS (50 mM Tris–HCl (pH 8.0) and 150 mM NaCl). Proteins were mixed in 96-well plates and incubated at R.T. for 1 h. Fluorescence intensities were measured using an excitation wavelength of 435 nm and an emission wavelength of 530 nm with a Cytation 3 (BioTek).
The emission spectra were measured with each component at 200 nM using the Cytation 3 (BioTek) with 435 nm excitation (Supplementary Fig. 2), and the original data are shown in Supplementary Table 1. The FRET intensity was calculated by Eq. (1).1 IFRET=IA-raw-Dleakage-Adirect where IA-raw is the intensity measured at 530 nm with 435 nm excitation, Dleakage is the leakage of the donor emission into the acceptor wavelength (530 nm) upon donor excitation, and Adirect is the direct excitation of the acceptor with the donor wavelength (435 nm).
The inhibition of complex formation was assayed by pre-incubating the binding partner (200 nM) with inhibitory factors (1, 10 μM) for 20 min at R.T., followed by addition of the other protein (200 nM) (Figs. 3B, 4C). The effects of divalent cations (10 mM) and nucleotides (3 mM) were also assayed similarly (Fig. 5).
The peptides for the peptide inhibition test were synthesized by Shanghai Dechi Biosciences (Fig. 6C,D). The peptide sequences were as follows: peptide 1, IVQKVNNEGEGDPFYEVLG; peptide 2, […] (an S–S bond was formed between the cysteine residues, as verified by HPLC and mass spectrometry). The peptides were dissolved in TBS buffer at 10 mM before use.
FRET data were evaluated by subtracting backgrounds (fluorescence intensities of CyPet-PRL2, CNNM3-YPet and a blank well). All data analysis was performed using GraphPad Prism 6 (GraphPad Software) with the methods described in each legend.

B1: PRL2: purified non-fluorescence protein-tagged human PRL2 (residues 1–167) (protein)
chain: MNRPAPVEISYENMRFLITHNPTNATLNKFTEELKKYGVTTLVRVCDATYDKAPVEKEGIHVLDWPFDDGAPPPNQIVDDWLNLLKTKFREEPGCCVAVHCVAGLGRAPVLVALALIECGMKYEDAVQFIRQKRRGAFNSKQLLYLEKYRPKMRLRFRDTNGHCCVQ
modifications: left off: His tag (from the vector pET28a and the Ni-NTA purification), end not stated, state not stated
B1 was tested, and the “FRET intensity abolished / inhibition of complex formation” value (“FRET intensity abolished / inhibition” below) (inhibitory protein 1 μM) was 85.5% and the “FRET intensity abolished / inhibition” value (inhibitory protein 10 μM) was 89.7%.

B2: PRL1: purified non-fluorescence protein-tagged human PRL1 (protein)
chain: MARMNRPAPVEVTYKNMRFLITHNPTNATLNKFIEELKKYGVTTIVRVCEATYDTTLVEKEGIHVLDWPFDDGAPPSNQIVDDWLSLVKIKFREEPGCCIAVHCVAGLGRAPVLVALALIEGGMKYEDAVQFIRQKRRGAFNSKQLLYLEKYRPKMRLRFKDSNGHRNNCCIQ
In the case of B2, the “FRET intensity abolished / inhibition” value (inhibitory protein 1 μM) is reported as 61.6% and the “FRET intensity abolished / inhibition” value (inhibitory protein 10 μM) is reported as 90.0%.

B3: non-YPet-tagged CNNM3: purified non-fluorescence-tagged CBS domain of human CNNM3 (protein)
chain: YSDLSKGVLRCRTVEDVLTPLEDCFMLDASTVLDFGVLASIMQSGHTRIPVYEEERSNIVDMLYLKDLAFVDPEDCTPLSTITRFYNHPLHFVFNDTKLDAVLEEFKRGKSHLAIVQKVNNEGEGDPFYEVLGLVTLEDVIEEIIRSEILDE
modifications: left off: His tag (from the vector pET28a and the Ni-NTA purification), end not stated, state not stated
For B3, the “FRET intensity abolished / inhibition” value (inhibitory protein 1 μM) was 77.7% and the “FRET intensity abolished / inhibition” value (inhibitory protein 10 μM) was 89.2%.

B4: CNNM3 CBS domain D426A mutant: CNNM3 CBS domain with D426A mutation at the PRL2-binding site (protein)
chain: B3 chain with D126A
modifications: left off: His tag (from the vector pET28a and the Ni-NTA purification), end not stated, state not stated
B4 was tested, and the “FRET intensity abolished / inhibition” value (inhibitory protein 10 μM) was 12.9% and the “effect of added protein on FRET intensity (in words)” value (inhibitory protein 1 and 10 μM) was “little effect on the FRET intensity”.
